Positions count from the first letter of the chain named. Names and notes keep the numbering of the source.
Tested on: engineered chimeric receptor SEQ ID NO: 33 and its mutants (human α7-nAChR ligand binding domain / human GlyRα1 ion pore domain) in Lenti-X 293T cells
Test: YFP fluorescence quenching anion reporter plate reader assay (percent quench, EC50)
Type: cell-based
Conditions: for YFP fluorescence quenching using CNL001 (percent quench): receptor named in row; for YFP fluorescence quenching using Varenicline, 3 nM var: ligand Varenicline 3 nM; for YFP fluorescence quenching using Varenicline, 30 nM var: ligand Varenicline 30 nM; for YFP fluorescence quenching using Varenicline, 300 nM var: ligand Varenicline 300 nM; for YFP fluorescence quenching using Varenicline, 500 nM var: ligand Varenicline 500 nM; for YFP fluorescence quenching using Varenicline, 1 uM var: ligand Varenicline 1 uM; for EC50: ligand TC-5619, YFP plate reader
Procedure, shortened: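 Percent quench compares mean YFP signal over the final 10 s with the 15 s baseline before ligand, added in iodide-containing extracellular solution (pH 7.2). Cells were LX293T carrying a YFP anion reporter, transiently transfected with the channel construct; plates were preincubated 30 min at 37 °C.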

[1] = 1 nM CNL001, first column so headed
[2] = 1 nM CNL001, second column so headed
[3] = 1 nM brd (TC-5619/Bradanicline)
[4] = 3 nM brd (TC-5619/Bradanicline)
[5] = 10 nM CNL001, first column so headed
[6] = 10 nM CNL001, second column so headed
[7] = 10 nM brd (TC-5619/Bradanicline)
[8] = 30 nM brd (TC-5619/Bradanicline)
[9] = 50 nM CNL001, first column so headed
[10] = 50 nM CNL001, second column so headed
[11] = 100 nM CNL001, first column so headed
[12] = 100 nM CNL001, second column so headed
[13] = 100 nM brd (TC-5619/Bradanicline)
[14] = 300 nM brd (TC-5619/Bradanicline)
[15] = 1 uM CNL001, first column so headed
[16] = 1 uM CNL001, second column so headed

B1: CODA1048: engineered receptor: R101F, Y210F in SEQ ID NO: 33 (protein)
chain: MRCSPGGVWLALAASLLHVSLQGEFQRKLYKELVKNYNPLERPVANDSQPLTVYFSLSLLQIMDVDEKNQVLTTNIWLQMSWTDHYLQWNVSEYPGVKTVFFPDGQIWKPDILLYNSADERFDATFHTNVLVNSSGHCQYLPPGIFKSSCPMDLKNFPMDVQTCKLKFGSWSYGGWSLDLQMQEADISGYIPNGEWDLVGIPGKRSERFFECCKEPYPDVTFTVTMRRRMGYYLIQMYIPSLLIVILSWISFWINMDAAPARVGLGITTVLTMTTQSSGSRASLPKVSYVKAIDIWMAVCLLFVFSALLEYAAVNFVSRQHKELLRFRRKRRHHKSPMLNLFQEDEAGEGRFNFSAYGMGPACLQAKDGISVKGANNSNTTNPPPAPSKSPEEMRKLFIQRAKKIDKISRIGFPMAFLIFNMFYWIIYKIVRREDVHNQ
modifications: synthetic sequence of chimeric LGIC
YFP fluorescence quenching using CNL001 (percent quench) [1]: 9.114% | YFP fluorescence quenching using CNL001 (percent quench) [2]: 0.845% | YFP fluorescence quenching using TC-5619/Bradanicline (percent quench) [3]: −2.084% | YFP fluorescence quenching using TC-5619/Bradanicline (percent quench) [4]: −9.098% | YFP fluorescence quenching using CNL001 (percent quench) [5]: 28.944% | YFP fluorescence quenching using CNL001 (percent quench) [6]: 53.629% | YFP fluorescence quenching using TC-5619/Bradanicline (percent quench) [7]: −2.587% | YFP fluorescence quenching using TC-6683 (percent quench) (30 nM TC-6683): −29.055% | YFP fluorescence quenching using TC-5619/Bradanicline (percent quench) [8]: 55.818% | YFP fluorescence quenching using CNL001 (percent quench) [9]: 68.581% | YFP fluorescence quenching using CNL001 (percent quench) [10]: 74.379% | YFP fluorescence quenching using ABT-126 (percent quench) (50 nM abt (ABT-126)): −23.28% | YFP fluorescence quenching using CNL001 (percent quench) [11]: 80.541% | YFP fluorescence quenching using CNL001 (percent quench) [12]: 80.774% | YFP fluorescence quenching using ABT-126 (percent quench) (100 nM abt (ABT-126)): −21.78% | YFP fluorescence quenching using TC-5619/Bradanicline (percent quench) [13]: 76.957% | YFP fluorescence quenching using TC-6683 (percent quench) (300 nM TC-6683): −33.935% | YFP fluorescence quenching using ABT-126 (percent quench) (300 nM abt (ABT-126)): −19.35% | YFP fluorescence quenching using TC-5619/Bradanicline (percent quench) [14]: 74.268% | YFP fluorescence quenching using CNL001 (percent quench) [15]: 83.143% | YFP fluorescence quenching using CNL001 (percent quench) [16]: 81.751% | YFP fluorescence quenching using ABT-126 (percent quench) (1 uM abt (ABT-126)): −16.33% | YFP fluorescence quenching using TC-6683 (percent quench) (3 uM TC-6683): −24.613% | YFP fluorescence quenching using TC-6683 (percent quench) (30 uM TC-6683): −21.752% | YFP fluorescence quenching using TC-6683 (percent quench) (100 uM TC-6683): −22.815% | YFP fluorescence quenching (percent quench) (100 uM ach (acetylcholine)): −17.31% | YFP fluorescence quenching (percent quench) (300 uM ach (acetylcholine)): −13.7% | YFP fluorescence quenching (percent quench) (500 uM ach (acetylcholine)): −10.1% | YFP fluorescence quenching (percent quench) (1 mM ach (acetylcholine)): 5.53% | YFP fluorescence quenching (percent quench) (3 mM ach (acetylcholine)): 68.61% | YFP fluorescence quenching (percent quench) (10 mM ach (acetylcholine)): 78.22% | YFP fluorescence quenching using Varenicline, 3 nM var (first column): −17.119 | YFP fluorescence quenching using Varenicline, 3 nM var (second column): −13.234 | YFP fluorescence quenching using Varenicline, 30 nM var (first column): −7.747 | YFP fluorescence quenching using Varenicline, 30 nM var (second column): 4.193 | YFP fluorescence quenching using Varenicline, 300 nM var (first column): 4.149 | YFP fluorescence quenching using Varenicline, 300 nM var (second column): 1.512 | YFP fluorescence quenching using Varenicline, 500 nM var (first column): −1.572 | YFP fluorescence quenching using Varenicline, 500 nM var (second column): 3.71 | YFP fluorescence quenching using Varenicline, 1 uM var (first column): 8.414 | YFP fluorescence quenching using Varenicline, 1 uM var (second column): 4.091

B2: COAD1056 (protein)
chain: B1 chain with Y115E, F210W
modifications: synthetic sequence of chimeric LGIC
EC50: 25.1 nM

B3: CODA1054: engineered receptor: R101M, L131F in SEQ ID NO: 33 (protein)
chain: B1 chain with F101M, L131F, F210Y
modifications: synthetic sequence of chimeric LGIC
YFP fluorescence quenching using CNL001 (percent quench) [1]: 21.932% | YFP fluorescence quenching using CNL001 (percent quench) [2]: 39.689% | YFP fluorescence quenching using TC-5619/Bradanicline (percent quench) [3]: 6.609% | YFP fluorescence quenching using TC-5619/Bradanicline (percent quench) [4]: −7.635% | YFP fluorescence quenching using CNL001 (percent quench) [5]: 54.192% | YFP fluorescence quenching using CNL001 (percent quench) [6]: 64.111% | YFP fluorescence quenching using TC-5619/Bradanicline (percent quench) [7]: 4.459% | YFP fluorescence quenching using TC-6683 (percent quench) (30 nM TC-6683): −22.996% | YFP fluorescence quenching using TC-5619/Bradanicline (percent quench) [8]: 69.782% | YFP fluorescence quenching using CNL001 (percent quench) [9]: 71.409% | YFP fluorescence quenching using CNL001 (percent quench) [10]: 70.989% | YFP fluorescence quenching using ABT-126 (percent quench) (50 nM abt (ABT-126)): −19.54% | YFP fluorescence quenching using CNL001 (percent quench) [11]: 74.148% | YFP fluorescence quenching using CNL001 (percent quench) [12]: 71.722% | YFP fluorescence quenching using ABT-126 (percent quench) (100 nM abt (ABT-126)): −18.28% | YFP fluorescence quenching using TC-5619/Bradanicline (percent quench) [13]: 77.633% | YFP fluorescence quenching using TC-6683 (percent quench) (300 nM TC-6683): −27.055% | YFP fluorescence quenching using ABT-126 (percent quench) (300 nM abt (ABT-126)): −16.87% | YFP fluorescence quenching using TC-5619/Bradanicline (percent quench) [14]: 72.933% | YFP fluorescence quenching using CNL001 (percent quench) [15]: 71.378% | YFP fluorescence quenching using CNL001 (percent quench) [16]: 71.411% | YFP fluorescence quenching using ABT-126 (percent quench) (1 uM abt (ABT-126)): −11.77% | YFP fluorescence quenching using TC-6683 (percent quench) (3 uM TC-6683): −18.611% | YFP fluorescence quenching (percent quench) (10 uM ach (acetylcholine)): −3.98% | YFP fluorescence quenching using TC-6683 (percent quench) (30 uM TC-6683): −13.879% | YFP fluorescence quenching using TC-6683 (percent quench) (100 uM TC-6683): −21.521% | YFP fluorescence quenching (percent quench) (100 uM ach (acetylcholine)): −10.34% | YFP fluorescence quenching (percent quench) (300 uM ach (acetylcholine)): −10.25% | YFP fluorescence quenching (percent quench) (500 uM ach (acetylcholine)): −11.46% | YFP fluorescence quenching (percent quench) (1 mM ach (acetylcholine)): 1.77% | YFP fluorescence quenching (percent quench) (3 mM ach (acetylcholine)): 36.81% | YFP fluorescence quenching (percent quench) (10 mM ach (acetylcholine)): 74.02% | YFP fluorescence quenching using Varenicline, 3 nM var (first column): 34.923 | YFP fluorescence quenching using Varenicline, 3 nM var (second column): 28.944 | YFP fluorescence quenching using Varenicline, 30 nM var (first column): 42.214 | YFP fluorescence quenching using Varenicline, 30 nM var (second column): 43.015 | YFP fluorescence quenching using Varenicline, 300 nM var (first column): 47.059 | YFP fluorescence quenching using Varenicline, 300 nM var (second column): 52.768 | YFP fluorescence quenching using Varenicline, 500 nM var (first column): 59.542 | YFP fluorescence quenching using Varenicline, 500 nM var (second column): 62.641 | YFP fluorescence quenching using Varenicline, 1 uM var (first column): 71.449 | YFP fluorescence quenching using Varenicline, 1 uM var (second column): 69.145

B4: COAD1055 (protein)
chain: B1 chain with F101W, Y115E, F210W
modifications: synthetic sequence of chimeric LGIC
EC50: 23.5 nM
